Results as given in paper PMC11143254, “Cryo-EM structure of cadmium-bound human ABCB6” (Communications Biology, 2024).

Target: the molecule itself
Assay: cryo-EM structure; nanodisc-reconstituted hABCB6^core (0.5 mg/mL) incubated with 800 uM CdCl2 and 1 mM GSH (or PC2) at 4 °C for 30 min; C2 symmetry; inward-facing homodimer

B1: human ABCB6 core region lacking TMD0 (hABCB6^core) (domain or fragment, UniProt Q9NP58 206-842, looked up)
chain: APGLRPQSYTLQVHEEDQDVERSQVRSAAQQSTWRDFGRKLRLLSGYLWPRGSPALQLVVLICLGLMGLERALNVLVPIFYRNIVNLLTEKAPWNSLAWTVTSYVFLKFLQGGGTGSTGFVSNLRTFLWIRVQQFTSRRVELLIFSHLHELSLRWHLGRRTGEVLRIADRGTSSVTGLLSYLVFNVIPTLADIIIGIIYFSMFFNAWFGLIVFLCMSLYLTLTIVVTEWRTKFRRAMNTQENATRARAVDSLLNFETVKYYNAESYEVERYREAIIKYQGLEWKSSASLVLLNQTQNLVIGLGLLAGSLLCAYFVTEQKLQVGDYVLFGTYIIQLYMPLNWFGTYYRMIQTNFIDMENMFDLLKEETEVKDLPGAGPLRFQKGRIEFENVHFSYADGRETLQDVSFTVMPGQTLALVGPSGAGKSTILRLLFRFYDISSGCIRIDGQDISQVTQASLRSHIGVVPQDTVLFNDTIADNIRYGRVTAGNDEVEAAAQAAGIHDAIMAFPEGYRTQVGERGLKLSGGEKQRVAIARTILKAPGIILLDEATSALDTSNERAIQASLAKVCANRTTIVVAHRLSTVVNADQILVIKDGCIVERGRHEALLSRGGVYADMWQLQQGQEETSEDTKPQTMER
notes: human ABCB6, core region lacking the N-terminal TMD0, residues 206-842, codon-optimized synthetic gene; Homodimeric half-transporter; The C-terminal tag (thrombin site, eGFP, 10xHis) was removed by thrombin; residues of the cleavage site may remain; Modelled residues exclude the extreme N-terminus and residues 827-842; not shown: eGFP, C-terminal, cleaved; 10xHis, C-terminal, cleaved
For B1, which “stoichiometry N” value is on record?
The value was 2.
